Laboratory results published in article PMC3928541.
Like-named read-outs stand apart in the source and are kept apart here.

Legend:
[1] = target: mCherry-RAB11A (UniProt P62491); test: FRET or BRET
[2] = target: mCherry-RAB11A (UniProt P62491); test: FRET or BRET; remark: listed apart in the source

Chain of UniProt P62491 (P62491 whole entry): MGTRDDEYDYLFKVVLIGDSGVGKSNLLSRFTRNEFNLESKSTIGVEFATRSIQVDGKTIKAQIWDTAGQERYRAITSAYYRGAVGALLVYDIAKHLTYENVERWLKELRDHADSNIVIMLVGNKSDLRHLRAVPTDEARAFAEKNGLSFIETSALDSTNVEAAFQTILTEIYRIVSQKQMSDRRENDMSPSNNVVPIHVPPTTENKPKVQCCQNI

A mean YFP fluorescence lifetime (FLIM) [1] of 2.45 ns and a mean YFP fluorescence lifetime (FLIM) [2] of 2.19 ns were found for “KIF13A-YFP fusion protein (natural protein)” in this work.
